Reference: patent EP1073891B1, “METHOD OF PREDICTING RECEPTOR MODULATING ACTIVITY” (Duke University, priority 1998, dated 1999)

Tests used:
Assay in all cases: Mammalian two-hybrid, specificity of peptide-nuclear receptor interaction (Example 4.2)
Format in all cases: cell-based
Conditions in all cases: mammalian two-hybrid (Fig. 8)
[1] = target: T1, thyroid receptor beta (TRβ-VP16) (Homo sapiens, UniProt P10828)
T1 construct: expressed in transfected cells
T1 sequence (P10828 1-461): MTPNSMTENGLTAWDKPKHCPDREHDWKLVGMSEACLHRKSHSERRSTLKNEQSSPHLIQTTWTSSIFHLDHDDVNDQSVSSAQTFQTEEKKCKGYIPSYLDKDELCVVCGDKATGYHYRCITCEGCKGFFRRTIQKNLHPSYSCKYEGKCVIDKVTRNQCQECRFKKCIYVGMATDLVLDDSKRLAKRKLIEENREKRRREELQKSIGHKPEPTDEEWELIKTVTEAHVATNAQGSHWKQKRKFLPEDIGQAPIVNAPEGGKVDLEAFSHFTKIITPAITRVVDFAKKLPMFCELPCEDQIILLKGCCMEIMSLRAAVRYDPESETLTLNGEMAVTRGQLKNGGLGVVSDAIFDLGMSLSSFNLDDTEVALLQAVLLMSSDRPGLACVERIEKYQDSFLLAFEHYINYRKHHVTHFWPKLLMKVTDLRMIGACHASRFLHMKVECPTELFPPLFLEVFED
From the text: (§1) Peptide sequences representing each class was fused to the DNA binding domain (DBD) of the yeast transcription factor Ga14. HepG2 cells were then transiently transfected with expression vectors for ERα-VP16 and the Gal4-peptide fusion proteins. In addition, a luciferase reporter construct under the control of 5 copies of a Ga14 upstream enhancer element was also transfected along with a pCMV-β galactosidase vector to normalize for transfection efficiency. Transfection of the Ga14 DBD alone is included as control. Cells were then induced with various ligands as indicated in the figure and assayed for luciferase activity and β galactosidase activity. Normalized response was obtained by dividing the luciferase activity by the β galactosidase activity.
(§2) The specificity of peptide-nuclear receptor interaction was analyzed (Fig. 8) using the mammalian two-hybrid system. Experimental design is the same as in figure 2 except that either progesterone receptor (PRB-VP16), estrogen receptor beta (ERβ-VP16), glucocorticoid receptor (GR-VP16) or thyroid receptor beta (TRβ-VP16) was tested.

[2] = target: T2, progesterone receptor (PRB-VP16) (Homo sapiens, UniProt P06401)
T2 construct: expressed in transfected cells
T2 sequence (P06401 1-933): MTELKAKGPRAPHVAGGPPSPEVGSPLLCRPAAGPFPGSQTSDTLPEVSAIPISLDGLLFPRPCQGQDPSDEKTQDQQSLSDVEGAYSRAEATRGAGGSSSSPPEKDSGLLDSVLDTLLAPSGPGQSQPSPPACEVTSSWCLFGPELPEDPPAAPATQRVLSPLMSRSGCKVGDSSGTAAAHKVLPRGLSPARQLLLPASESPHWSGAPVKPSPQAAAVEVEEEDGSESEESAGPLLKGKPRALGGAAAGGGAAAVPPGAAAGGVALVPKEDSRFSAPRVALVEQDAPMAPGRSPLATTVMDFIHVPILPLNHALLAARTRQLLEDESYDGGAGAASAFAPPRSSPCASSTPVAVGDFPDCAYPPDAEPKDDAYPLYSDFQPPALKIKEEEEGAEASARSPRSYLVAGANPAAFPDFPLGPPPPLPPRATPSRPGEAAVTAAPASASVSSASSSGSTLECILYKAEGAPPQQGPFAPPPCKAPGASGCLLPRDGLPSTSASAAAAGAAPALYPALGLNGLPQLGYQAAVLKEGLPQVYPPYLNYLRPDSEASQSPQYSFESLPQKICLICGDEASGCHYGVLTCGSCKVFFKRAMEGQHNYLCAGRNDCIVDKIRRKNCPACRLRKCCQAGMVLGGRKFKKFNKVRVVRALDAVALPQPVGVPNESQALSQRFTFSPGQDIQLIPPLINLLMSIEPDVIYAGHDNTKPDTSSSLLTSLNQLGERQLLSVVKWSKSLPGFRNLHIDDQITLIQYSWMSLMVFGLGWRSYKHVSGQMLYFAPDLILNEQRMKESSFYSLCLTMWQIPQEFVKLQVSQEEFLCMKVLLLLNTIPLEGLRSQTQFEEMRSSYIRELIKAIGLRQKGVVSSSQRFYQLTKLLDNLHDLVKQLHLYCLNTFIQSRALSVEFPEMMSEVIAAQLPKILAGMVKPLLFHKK
From the text: as §1, §2

[3] = target: T3, glucocorticoid receptor (GR-VP16) (Homo sapiens, UniProt P04150)
T3 construct: expressed in transfected cells
T3 sequence (P04150 1-777): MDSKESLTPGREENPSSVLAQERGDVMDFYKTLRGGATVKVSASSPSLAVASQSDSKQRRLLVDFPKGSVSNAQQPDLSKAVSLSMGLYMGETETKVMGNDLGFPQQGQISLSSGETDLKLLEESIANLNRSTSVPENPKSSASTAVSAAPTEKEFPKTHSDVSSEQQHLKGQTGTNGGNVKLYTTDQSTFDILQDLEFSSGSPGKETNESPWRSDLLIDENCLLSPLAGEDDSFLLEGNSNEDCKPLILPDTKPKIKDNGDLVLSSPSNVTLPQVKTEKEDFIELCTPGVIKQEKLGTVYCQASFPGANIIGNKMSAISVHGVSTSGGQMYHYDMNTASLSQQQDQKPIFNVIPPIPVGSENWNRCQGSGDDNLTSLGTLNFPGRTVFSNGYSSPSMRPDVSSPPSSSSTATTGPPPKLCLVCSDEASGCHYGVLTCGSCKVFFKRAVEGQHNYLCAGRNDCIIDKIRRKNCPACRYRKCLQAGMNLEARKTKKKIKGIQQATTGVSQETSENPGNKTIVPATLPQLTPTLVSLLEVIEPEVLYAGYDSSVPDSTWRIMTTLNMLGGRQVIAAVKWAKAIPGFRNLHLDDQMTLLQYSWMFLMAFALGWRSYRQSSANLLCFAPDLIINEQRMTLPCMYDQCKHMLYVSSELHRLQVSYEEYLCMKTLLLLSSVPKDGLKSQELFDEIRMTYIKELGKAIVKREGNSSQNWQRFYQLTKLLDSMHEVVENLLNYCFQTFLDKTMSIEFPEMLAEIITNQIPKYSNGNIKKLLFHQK
From the text: as §1, §2

Sequence	interaction with TRβ [1]	interaction with PRB [2]	interaction with GR [3]
SSLTSRDFGSWYASR [α II]	None of the receptors tested interact significantly	None of the receptors tested interact significantly	None of the receptors tested interact significantly
SSNHQSSRLIELLSR [α/β I]	interact with the αβ I peptide in the presence of the appropriate agonist	interact with the αβ I peptide in the presence of the appropriate agonist	interact with the αβ I peptide in the presence of the appropriate agonist
SSPGSREWFKDMLSR [α/β V]	–	able to associate with PRB in the presence of the PR antagonists RU 486 and ZK 98299	–
SSWDMHQFFWEGVSR [α/β III]	None of the receptors tested interact significantly	None of the receptors tested interact significantly	None of the receptors tested interact significantly
